Measurements as given in patent US20240358847A1 (Merck Sharp & Dohme, published 2024).

Assays:
[1] = biological target: T1, Human Trop2 (human, UniProt P09758 27-274, limits assumed); assay: SPR, TROP2 capture, pH 7.4, monovalent mode; KDapp
T1 construct: also called TROP2 protein; trophoblast cell-surface antigen 2
T1 sequence (looked up): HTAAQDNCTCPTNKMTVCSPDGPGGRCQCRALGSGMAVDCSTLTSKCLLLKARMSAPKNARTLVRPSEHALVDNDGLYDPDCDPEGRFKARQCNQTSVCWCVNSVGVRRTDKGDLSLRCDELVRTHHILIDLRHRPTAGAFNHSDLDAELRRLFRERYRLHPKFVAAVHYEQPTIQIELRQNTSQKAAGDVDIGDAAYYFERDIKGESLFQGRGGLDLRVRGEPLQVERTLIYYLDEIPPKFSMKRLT

[2] = biological target: T1, Human Trop2; assay: SPR, binding to target
[3] = biological target: T2, TROP2 on BxPC-3 and MDA-MB-231-KWL cells (human, UniProt P09758 27-323); assay: on-cell ELISA, MDA-MB-231-KWL cells (TROP2 low); parameters: unit not given beside the values
T2 construct: whole, on cells
T2 sequence (looked up): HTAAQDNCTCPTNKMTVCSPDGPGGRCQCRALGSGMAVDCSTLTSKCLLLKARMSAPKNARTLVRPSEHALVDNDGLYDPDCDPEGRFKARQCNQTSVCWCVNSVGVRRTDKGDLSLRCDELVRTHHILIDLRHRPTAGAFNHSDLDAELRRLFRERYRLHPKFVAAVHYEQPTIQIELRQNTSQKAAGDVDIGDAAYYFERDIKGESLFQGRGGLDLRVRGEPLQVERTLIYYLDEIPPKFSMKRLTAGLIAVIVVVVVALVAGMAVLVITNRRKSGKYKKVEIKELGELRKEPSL
Description: (§1) Cells were plated in duplicate onto 96-well plates, and primary antibody was diluted in cell culture medium with a starting concentration of 30 μg/mL (200 nM) with a dilution factor of 1:5. […] Data was plotted and analyzed. EC50 ([…]) was measured along with area under the curve (AUC) for each cell line.

[4] = biological target: T2, TROP2 on BxPC-3 and MDA-MB-231-KWL cells; assay: on-cell ELISA, BxPC-3 vs MDA-MB-231-KWL cells
Description: as §1

[5] = biological target: T2, TROP2 on BxPC-3 and MDA-MB-231-KWL cells; assay: on-cell ELISA, BxPC-3 cells (TROP2 high); parameters: unit not given beside the values
Description: as §1

[6] = biological target: T1, Human Trop2; assay: SPR, TROP2 capture, pH 7.4, bivalent mode; KDapp

B1: αTROP2 Fab (Fab, V domains shown)
VH: QVQLQQSGSELKKPGASVKVSCKASGYTFTNYGMNWVKQAPGQGLKWMGWINTYTGEPTYTDDFKGRFAFSLDTSVSTAYLQISSLKADDTAVYFCARGGFGSSYWYFDVWGQGSLVTVSS
VL: DIQLTQSPSSLSASVGDRVSITCKASQDVSIAVAWYQQKPGKAPKLLIYSASYRYTGVPDRFSGSGSGTDFTLTISSLQPEDFAVYYCQQHYITPLTFGAGTKVEIK
notes: CH1 and kappa constant parts not specified
Work on B1 yielded a Kd [1] of 1.1 nM.

B2: αTROP2 (HC:BSM-YTE-S375C) (LC:BSM-Y53D) conjugated to MP-AA-PABC-MMAE (ADC 1) (antibody, human IgG1, kappa, V domains shown)
VH: QVQLLQSGSELKKPGASVKVSCKASGYTFTNYGMNWVRQAPGQGLKWMGWINTYTGEPTYTDDFKGRFSFSLDTSVSQAYLQISSLKAEDTAVYYCARGGFGSSYWYFDVWGQGTLVTVSS
VL: DIQLTQSPSSLSASVGDRVTITCKASQDVSIAVAWYQQKPGKAPKLLIYSASDRYTGVPSRFSGSGSGTDFTLTISSLQPEDFATYYCQQHYITPLTFGPGTKVEIKR
modifications: Cys at position 375 (Eu numbering) conjugated to MP-AA-PABC-MMAE; DAR 1.9
notes: Antibody-drug conjugate; also called αTROP2 (HC:BSM-YTE-S375C-MMAE) (LC:BSM-Y53D)
B2: binds [2].

B3: mAb_Lm_T94F_HC (antibody, human IgG1, kappa)
heavy: not shown
light: DIQLTQSPSSLSASVGDRVSITCKASQDVSIAVAWYQQKPGKAPKLLIYSASYRYTGVPDRFSGSGSGTDFTLTISSLQPEDFAVYYCQQHYIFPLTFGAGTKVEIKRTVAAPSVFIFPPSDEQLKSGTASVVCLLNNFYPREAKVQWKVDNALQSGNSQESVTEQDSKDSTYSLSSTLTLSKADYEKHKVYACEVTHQGLSSPVTKSFNRGEC
B3 was tested, and the “AUC (MDA-MB-231-KWL)” value [3] was 240, the ΔAUC [4] was 77.4 and the “AUC (BxPC-3)” value [5] was 318.

B4: mAb_Lm_Y53N_HC (antibody, human IgG1, kappa)
heavy: not shown
light: DIQLTQSPSSLSASVGDRVSITCKASQDVSIAVAWYQQKPGKAPKLLIYSASNRYTGVPDRFSGSGSGTDFTLTISSLQPEDFAVYYCQQHYITPLTFGAGTKVEIKRTVAAPSVFIFPPSDEQLKSGTASVVCLLNNFYPREAKVQWKVDNALQSGNSQESVTEQDSKDSTYSLSSTLTLSKADYEKHKVYACEVTHQGLSSPVTKSFNRGEC
For B4, the “AUC (MDA-MB-231-KWL)” value [3] was 140, the ΔAUC [4] was 169 and the “AUC (BxPC-3)” value [5] was 309.

B5: mAb_Lm_Y53S_HC (antibody, human IgG1, kappa)
heavy: not shown
light: DIQLTQSPSSLSASVGDRVSITCKASQDVSIAVAWYQQKPGKAPKLLIYSASSRYTGVPDRFSGSGSGTDFTLTISSLQPEDFAVYYCQQHYITPLTFGAGTKVEIKRTVAAPSVFIFPPSDEQLKSGTASVVCLLNNFYPREAKVQWKVDNALQSGNSQESVTEQDSKDSTYSLSSTLTLSKADYEKHKVYACEVTHQGLSSPVTKSFNRGEC
With B5 the “AUC (MDA-MB-231-KWL)” value [3] was 205, the ΔAUC [4] was 102 and the “AUC (BxPC-3)” value [5] was 307.

B6: mAb_Lm_Y92A_HC (antibody, human IgG1, kappa)
heavy: not shown
light: DIQLTQSPSSLSASVGDRVSITCKASQDVSIAVAWYQQKPGKAPKLLIYSASYRYTGVPDRFSGSGSGTDFTLTISSLQPEDFAVYYCQQHAITPLTFGAGTKVEIKRTVAAPSVFIFPPSDEQLKSGTASVVCLLNNFYPREAKVQWKVDNALQSGNSQESVTEQDSKDSTYSLSSTLTLSKADYEKHKVYACEVTHQGLSSPVTKSFNRGEC
With B6 the “AUC (MDA-MB-231-KWL)” value [3] was 13.1, the ΔAUC [4] was 147 and the “AUC (BxPC-3)” value [5] was 160.

B7: mAb_Lm_Y53V_HC (antibody, human IgG1, kappa)
heavy: not shown
light: DIQLTQSPSSLSASVGDRVSITCKASQDVSIAVAWYQQKPGKAPKLLIYSASVRYTGVPDRFSGSGSGTDFTLTISSLQPEDFAVYYCQQHYITPLTFGAGTKVEIKRTVAAPSVFIFPPSDEQLKSGTASVVCLLNNFYPREAKVQWKVDNALQSGNSQESVTEQDSKDSTYSLSSTLTLSKADYEKHKVYACEVTHQGLSSPVTKSFNRGEC
B7 was tested, and the “AUC (MDA-MB-231-KWL)” value [3] was 213, the ΔAUC [4] was 105 and the “AUC (BxPC-3)” value [5] was 317.

B8: αTROP2 (HC:Sac) (LC:Sac-Y53D) (antibody, human IgG1, kappa)
heavy: not shown
light: DIQLTQSPSSLSASVGDRVSITCKASQDVSIAVAWYQQKPGKAPKLLIYSASDRYTGVPDRFSGSGSGTDFTLTISSLQPEDFAVYYCQQHYITPLTFGAGTKVEIKRTVAAPSVFIFPPSDEQLKSGTASVVCLLNNFYPREAKVQWKVDNALQSGNSQESVTEQDSKDSTYSLSSTLTLSKADYEKHKVYACEVTHQGLSSPVTKSFNRGEC
With B8 the “AUC (MDA-MB-231-KWL)” value [3] was 95.1, the ΔAUC [4] was 193 and the “AUC (BxPC-3)” value [5] was 288.

B9: αTROP2 (HC: Sac-S375C) (LC: Sac-Y53D) (antibody, human IgG1, kappa)
heavy: not shown
light: DIQLTQSPSSLSASVGDRVSITCKASQDVSIAVAWYQQKPGKAPKLLIYSASDRYTGVPDRFSGSGSGTDFTLTISSLQPEDFAVYYCQQHYITPLTFGAGTKVEIKRTVAAPSVFIFPPSDEQLKSGTASVVCLLNNFYPREAKVQWKVDNALQSGNSQESVTEQDSKDSTYSLSSTLTLSKADYEKHKVYACEVTHQGLSSPVTKSFNRGEC
With B9 the Kd [6] was 6.9 nM.

B10: mAb_Lm_Y92E_HC (antibody, human IgG1, kappa)
heavy: not shown
light: DIQLTQSPSSLSASVGDRVSITCKASQDVSIAVAWYQQKPGKAPKLLIYSASYRYTGVPDRFSGSGSGTDFTLTISSLQPEDFAVYYCQQHEITPLTFGAGTKVEIKRTVAAPSVFIFPPSDEQLKSGTASVVCLLNNFYPREAKVQWKVDNALQSGNSQESVTEQDSKDSTYSLSSTLTLSKADYEKHKVYACEVTHQGLSSPVTKSFNRGEC
B10 was tested, and the “AUC (MDA-MB-231-KWL)” value [3] was 16.1, the ΔAUC [4] was 148 and the “AUC (BxPC-3)” value [5] was 165.
